Experimental data published in the nanobody polyreactivity screen of Harvey et al. (2022).

Test: yeast display, Sf9 membrane polyspecificity reagent, FACS + sequencing; frameworks hold sequencing errors
In short: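 Nanobodies came from a synthetic yeast display library in Saccharomyces cerevisiae BJ5465, induced with galactose for 36–48 hours and stained for 1 hour at 4 °C with 10% biotinylated, detergent-solubilized Sf9 membrane reagent. Cells were enriched on streptavidin microbeads and then FACS-sorted, with low and high (top ~1%) gates set on anti-HA fluorescence for expression and streptavidin fluorescence for reagent binding. Each polyreactivity label reflects the gate a clone came from. Genes were amplified by colony PCR, sequenced by MiSeq 2 × 250 and filtered by CDR length.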

| Sequence | polyreactivity (PSR sort gate) |
| --- | --- |
| QVQLVESGGGLFQAGGSLRLSCAASGSIFLYYAMGWYRQAPGKERELDATIRRRDGSTYYADSVKGRFTISRDNAKNTVYLQMNSLIPEDTAVYYCNTAGYYWLHYTMDYWGQVTQVTVSS | high polyreactivity |
| QVQLVESGGGLVQAGGSLRLSCAASGFTIYGYAMGWYSQAPGKERELVAAISSSGGRTYYADSVKGRCTISRDNAKNTVYLQMNSLKPEDTAVYYCAAEYRSYRDGYWGQGTQVTVSS | high polyreactivity |
| QVQLVESGGGLVQAGGSLRLSCAASGRIFRGYAMGWYRQAPGKERELVAAISRSGGSTYYADSVKGRFTISRDNAKNTVYLQMNSLKPEDTAVYYCAAVPYYVWYYYPIGGYWGQGTQVTVSS | high polyreactivity |
| QVQLVESGGGLVQAGGSLRLSCPASGRTFKWYAMGWYRQAPGKERELVAAISTGGRTHYADSVKGRFTISRDNSKNTVYLQMNSLKPEDTAVYYCNAADDLADPERTENHKRDYWGQGTQVTVSS | high polyreactivity |
| QVQLVESGGGLVQAGGSLRLSCAASGRNFDKYTMGWYRQAPGKERELVAAISKSGSGTFYADSVKGRFTISRDNAKNTVYLQMNRLKPEDTAVYYCARVYTVGTGRSWRLDYWGQGTQVTVSS | high polyreactivity |
| QVQLVESGGGLVQAGGSLRLSCAASGYIFENYALGWYRQAPGKERELVAALSTRGGSTYYADSVKGRFTISRDNAKNTVYLQMNSLKPEDTAVYYCAAADSTGYYYWGQGTQVTVSS | high polyreactivity |
| QVQLVESGGGLVQAGGSLRLSCSASGSISYYNAMAWYRQAPGKERELVASITRRGGTTNYAESVKGRFSISRDNAKHTVYLQMNSLKPEDTAVYNCNAEYPYWTPDYNYRFDYWGQGTQVTVSS | high polyreactivity |
| QVQLVESGGGLVQAGGSLRLSCAASGIIFRRNAMGWYRQAPGKERELVASITSGGSTNYADSVKGRFTISRDNAKNTVYLQMNSLKPEDTAVYYCATVRKYRAMDYWGQGTQVTVSS | high polyreactivity |
| QVQLVESGGGLVQAGGSLRLSCAASGRIFGPYVMGWYRQAPGKEREFVAAISRRTGSTYYADSVKGRFTISRDNAKNTVYLQMNSLKPEDTAVYYCAATYYFSHVVGYGYWGQGTQVTVSS | high polyreactivity |
| QVQLVDSGGGLVQAGGSLRLSCAASGFIFTQYAMGWYRQAPGQDRELVAAISRSGSSTYYADSVKGRFTISRDNAKNTVSLQMNSLKPEDTAVYYCAAKGSRGTRYWGEDYWGQGTQVTVSS | low polyreactivity |
| QVQLVESGGGLVQAGGSLRLSCAASGRIFPVYAMGWYRQAPGKERELVATITSRTGRTYYADSVKGRFTISRDNAKNTVYLQMNSLIPEDTAVSYCAARGYYSAPGYGYWGQGTQVTVSS | high polyreactivity |
| QVQLVESGGGLVQAGGSLRLSCAASGFIFVVYDMGWYRQAPGKERELVAGIDTSGADTYYADSVKGRFTISRDNAKNTVYLQMNRLKPEDPAVYYCAAETITDDYYEYDYWGQGTQVTVSS | low polyreactivity |
| QVELVESGGGLVQAGGSLRLSCAASGFIFTYYAMGWYSQAPWKERELVATISSGGGSTYYADSVKGRFTISRDNAKNTVYLQMYSLNPEDTAVYYCAASRRITGIRYINRYAYWGQGTQVTVSS | high polyreactivity |
| QGQLVESGGGLVQAGGSLRLSSAASGSTHALYTMGWYRQARGKARQLVAAISKNGGRTYYADSVKGRFTISRDNAKNTVYVQMNSLKPEDTAVYYCAAASGSYRGYDYWGQGTQVTVSS | high polyreactivity |
| QVQLVESGGGLVQAGGSLRLSCAASGFIFGAYAMGWYRQAPGKERELVAAITKSGGRTYYADSVKGRFTISRDNAKNTVYLQMNSLKPEDTAVYFCAAVTRYPREYDYWGQGTQVTVSS | high polyreactivity |
| QFHHVESGGGLVQAGCSLRLSCGASGLTSAIYVMGLYRQAPGKEREFVADITWNAGSTYYADSVQGRFTISRDNAKNTVYVEMKSLKPEDTAVYYCNAYIVSGFYEYDFWGQGTQVTVSS | high polyreactivity |

| Sequence | polyreactivity (PSR sort gate) |
| --- | --- |
| QGQLVESWGGLVQAGGSLRLSCAASGRIFYGYVMGWYREAPGKERELVAAINHSGTSTYYADSVKGRFTISRDIAKNTVYLQMNIMKPEDTAVYYCAADQVGWTYDYWGQGTQVTVSS | low polyreactivity |
| QVQLVESGGGLVQAGGSLRLSCAASGSISDSNAMGSYRQAPGKERELVAAIDDSGGSTYYADSVKGRFTISRDNAKNTVYLQMNSLKPEDTAVYYCAKTKTQYLTSEIRFVYWGQGTQVTVSS | low polyreactivity |
| QVQLVESGGGLVQAGGSLRLSCAASGLTFWWYAMGWYRQAPGKERELVAAISSSGGSTYYADSVKGRFTISRDIAKNTVYLQMNSLKPEDTAVYYCAVASWDNYWDPYGYWGQGTQVTVSS | low polyreactivity |
| QVQLVESGGGLVQAGGSLRLSCAASGRSFTSNTMGWYRPAPGKERELVAAITSSGGSMYYADSVKGRFTISRDNANNTVYLQMNSLKPEDTAVYYCAADTIGYHYWYDYWGQGTQVTVSS | low polyreactivity |
| QVQLVESGGGLVQAGGSLRLSCAASGSTFSTNARGWYRQAPGKERELVAAINWSTGSTHYADSVKGRFTISRDNAKNTVYLQMNSLKPEDTAVYFCAAEGPKQYDYWGQGYQVTVSS | low polyreactivity |
| QVQLVESGGGLVQAGGSLRLSCAASGSTIRDYAMGWYRQAPGKDRELVAVIDNSGGRTYYADSVKGRFTISRDNAKNTVYLQMNSLKPEDTAVYYCNTRRIAQYGYWGQGTQVTVSS | high polyreactivity |
| QVQLVESGRGLVQAGGSLRLSCAASGITCPVNVMGWYRQAPGKERELVAAISTSGGSTYYADSVKGRFTISRDNAKNTVYLQMNSLKPEDTAVYYCARQYIRSSYGYWGQGTQVTVSS | low polyreactivity |
| QVQLVESGGGLVQAGGSLRLSCAACGSIFDRYVMGWYRQAPGKERELVAAISSSGGSTYYADSVKGRFTISRDNAKNTVYLQMNSLKPEDTAVYYCAAKFSYGRYNYWGQGTQVTVSS | high polyreactivity |
| QVHLVESGGGLVQAGGRLLLSCAASGLILRTYGMGWYRQAPRKERELVAVISSGGSTYYADSVNGRFTISRDNAKNTVYLQMNSLKPEDTAVYYCAVRSSWYEGDYWGQGTQVTVSS | low polyreactivity |
| QVQLVESGGGLVQAGGSLRLSCAASGFTFVGNAMGWYRQAPGKERELVATITSGGNTKYADSVKGRFTISRDNAKNTVYLQMNILKPEDTAVYYCAADSDSFWGVPSYYWGQGTQVTVSS | low polyreactivity |
| QVQLVESGGGLVQAGGSLRLSCAASGSTILINAMGWYRQAPGKERELVAAISRDGSTNYADSVKGRFTISRDNAKNTVYLQMNSLKPEDTAVYYCAAVPGISVGRQPGYDYDYWGQGTQVTVSS | low polyreactivity |
| QVQLVESRGGLVQAGGSLRLICAASANNYRYAMGWYRQAPAKEREFVAAISRGGSTFYADSVKGRFTISRDNAKNTVYEQMNRLKPEDSAVFYCDKERYNVYYYSGQGTQVTVSS | high polyreactivity |
| QVQLVESGGGLVQAGGSLRLSCAASGRTFRWYAMGWYRQAPGKERELVATITSGGSTNYADSVKGRFTISRDNAKNTVYLQMNSLKPEDTAVYYCAAWSYAYYYRLRYVSHDYWGQGTQVTVSS | high polyreactivity |
| QVQLVESGGGLVQAGGSLRLSCAASGFIFTRNAMGLYRQAPGTERELVAVISYGGGSTYYADSVKGRFTISRDNAKNTVYLQMNSLKPEDTAVYYCAADQNWRYYYHYTYYYWGQGTQVTVSS | high polyreactivity |
| QVQLVESGGGLVQAGGSLRLSCAASGSIFRIYAMGWYRQSPGKERELVAAISFSTGSRTYYADSVKGRFTISRDNAKNTVYLQMNSLKPEDTAVYYCNAESYYDYNYWGQGTQVTVSS | low polyreactivity |
| QVQLVESGGGLVQAGGSLRLSCAASGSTFVYYDMGWYRQAPGKERELVAAISRGGGSTYYADSVKGRFTISRDNAKNTVYLQMNSLKPEDTAVYYCAAVAGYRYYWGQGTQVTVSS | high polyreactivity |
